B1: DNA annealing helicase and endonuclease ZRANB3 (Homo sapiens), Q5FWF4 (parent)
chain: MPRVHNIKKSLTPHISCVTNESDNLLDFLPDRLRAKLLPFQKDGIIFALKRNGRCMVADEMGLGKTIQAIGITYFYKEEWPLLIVVPSSLRYPWTEEIEKWIPELSPEEINVIQNKTDVRRMSTSKVTVLGYGLLTADAKTLIDALNNQNFKVVIVDESHYMKSRNATRSRILLPIVQKARRAILLTGTPALGRPEELFMQIEALFPQKFGRWTDYAKRYCNAHIRYFGKRPQWDCRGASNLNELHQLLSDIMIRRLKTEVLTQLPPKVRQRIPFDLPSAAAKELNTSFEEWEKIMRTPNSGAMETVMGLITRMFKQTAIAKAGAVKDYIKMMLQNDSLKFLVFAHHLSMLQACTEAVIENKTRYIRIDGSVSSSERIHLVNQFQKDPDTRVAILSIQAAGQGLTFTAASHVVFAELYWDPGHIKQAEDRAHRIGQCSSVNIHYLIANGTLDTLMWGMLNRKAQVTGSTLNGRKEKIQAEEGDKEKWDFLQFAEAWTPNDSSEELRKEALFTHFEKEKQHDIRSFFVPQPKKRQLMTSCDESKRFREENTVVSSDPTKTAARDIIDYESDVEPETKRLKLAASEDHCSPSEETPSQSKQIRTPLVESVQEAKAQLTTPAFPVEGWQCSLCTYINNSELPYCEMCETPQGSAVMQIDSLNHIQDKNEKDDSQKDTSKKVQTISDCEKQALAQSEPGQLADSKEETPKIEKEDGLTSQPGNEQWKSSDTLPVYDTLMFCASRNTDRIHIYTKDGKQMSCNFIPLDIKLDLWEDLPASFQLKQYRSLILRFVREWSSLTAMKQRIIRKSGQLFCSPILALEEITKQQTKQNCTKRYITKEDVAVASMDKVKNVGGHVRLITKESRPRDPFTKKLLEDGACVPFLNPYTVQADLTVKPSTSKGYLQAVDNEGNPLCLRCQQPTCQTKQACKANSWDSRFCSLKCQEEFWIRSNNSYLRAKVFETEHGVCQLCNVNAQELFLRLRDAPKSQRKNLLYATWTSKLPLEQLNEMIRNPGEGHFWQVDHIKPVYGGGGQCSLDNLQTLCTVCHKERTARQAKERSQVRRQSLASKHGSDITRFLVKK

Variants of: B1
Conditions: with pcna_human PCNA

| Variant | effect of a mutation on the interaction |
| --- | --- |
| Q519A;F525A;F526A | disrupting interaction strength |

Variants of: B1
Conditions: with pcna_human PCNA
Remark: another data set of the same source

| Variant | effect of a mutation on the interaction |
| --- | --- |
| Q519A;F525A;F526A;Y632A | decreasing interaction strength |
